# Experimental data as given in patent publication US20210107983A1 (Boehringer Ingelheim, published 2021).
# T1: Cyno B7H6-His (cynomolgus monkey)
# T1 construct: also called CyB7H6; cyB7-H6
# T1 chain: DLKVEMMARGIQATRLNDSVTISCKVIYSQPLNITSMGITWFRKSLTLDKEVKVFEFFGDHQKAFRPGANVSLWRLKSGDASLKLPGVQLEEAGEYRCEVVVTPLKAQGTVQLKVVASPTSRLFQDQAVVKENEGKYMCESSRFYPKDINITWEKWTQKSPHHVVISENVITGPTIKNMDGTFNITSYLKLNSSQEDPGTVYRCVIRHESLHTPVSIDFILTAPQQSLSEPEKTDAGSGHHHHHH
# Columns and labels:
# Human CD3 E+G HuFc-6xHis = biological target: T2, Human CD3 E+G HuFc-6xHis (human); assay: SPR, CD3E+G-hFc immobilized, binder analyte
# T2 construct: also called HuCD3E+G-hFc; huCD3
# Experimental: To determine the affinity of the B7H6/CD3 binding protein to human and cyno CD3E+G-hFc, the experiment was performed on a Bio-Rad ProteOn™ XPR36 instrument. Briefly, HuCD3E+G-hFc and CyCD3E+G were amine-coupled on a ProteOn™ GLM sensor chip (Bio-Rad) and the B7H6/CD3 binding protein was flowed over the immobilized surface. The running buffer for this experiment and all serial dilutions were prepared in HBS-EP+. The GLM sensor chip was normalized according to Bio-Rad's recommendations. The sensor chip was activated with an equal mixture of EDC/s-NHS in the horizontal direction for 300 s at a flow rate of 30 μL/min HuCD3E+G-hFc was immobilized in the vertical direction at 0.4 μg/mL, 0.2 μg/mL and 0.1 μg/mL in 10 mM acetate pH 4.5 to L1, L2 and L3, respectively, for 300 s at a flow rate of 30 μL/min resulting in about 100 RU of HuCD3E+G-hFc on L1, 40 RU of HuCD3E+G-hFc on L2 and 0 RU of HuCD3E+G-hFc on L3. CyCD3E+G-hFc was immobilized in the vertical direction at 0.4 μg/mL, 0.2 μg/mL and 0.1 μg/mL in 10 mM acetate pH 4.5 to L4, L5 and L6, respectively, for 300 s at a flow rate of 30 μL/min resulting in about 385 RU of […], 170 RU of CyCD3E+G-hFc on L5 and 50 RU of CyCD3E+G-hFc on L6. The sensor chip was deactivated with 1M ethanolamine-HCl in the horizontal direction for 300 s at a flow rate of 30 μL/min.
# (§1) The B7H6/CD3 binding protein analyte was injected horizontally over the immobilized surface for 300 s at a flow rate of 30 μL/min with a dissociation of 600 s. The concentrations of the B7H6/CD3 binding protein used were 0 nM, 1.2 nM, 3.7 nM, 11.1 nM, 33.3 nM and 100 nM.
# The interspot (interactions with sensor surface) and blank (HBS-EP+ or 0 nM analyte) were subtracted from the raw data.
# Cyno B7H6-His [1] = biological target: T1, Cyno B7H6-His; assay: SPR, binder captured on Protein A/G, B7H6 analyte
# Experimental: (§2) To determine the affinity of human and cyno B7H6 and human B7H1 to B7H6/CD3 binding proteins, the experiment was performed on a Biacore™ 8K instrument (GE Healthcare Life Sciences). Briefly, the B7H6/CD3 binding protein was captured via Protein A/G. The running buffer for this experiment and all serial dilutions were prepared in HBS-EP+. The CM5 sensor chip was activated with an equal mixture of EDC/NHS across both flow cells for 420 s at a flow rate of 10 μL/min and immobilized with recombinant Protein A/G (50 μg/ml in 10 mM NaOAc, pH 4.5) across all flow cells for 420 s at a flow rate of 10 μL/min resulting in about 2500 RU of Protein A/G on the surface. The sensor chip was deactivated with 1M ethanolamine-HCl across all flow cells for 420 s at a flow rate of 10 μL/min.
# (§3) About 700 RU of the B7H6/CD3 binding protein was captured on flow cell 2 of the Protein A/G surface for 60 s at a flow rate of 10 μL/min. The analytes HuB7H6, CyB7H6 and HuB7H1 were injected across both flow cells over captured B7H6/CD3 binding protein for 300 s at a flow rate of 30 μL/min with a dissociation of 1200 s. The concentrations of HuB7H6 and CyB7H6 were 0 nM, 6.25 nM, 12.5 nM, 25 nM, 50 nM and 100 nM. The concentrations of HuB7H1 were 0 nM and 1 μM. The surface was regenerated by injecting 10 mM glycine-HCl, pH 1.5 for 20 s at a flow rate of 30 μL/min across both flow cells.
# (§4) The reference flow cell 1 (interactions with sensor surface) and blank (HBS-EP+ or 0 nM analyte) were subtracted from the raw data.
# Human B7H1 = biological target: T3, Human B7H1 (human, UniProt Q9NZQ7 20-239); assay: SPR, binder captured on Protein A/G, HuB7H1 analyte
# T3 construct: also called HuB7H1; huB7-H1
# Experimental: as §2, §3, §4
# Cyno B7H6-His [2] = biological target: T1, Cyno B7H6-His; assay: ratio of SPR KDs cyno/human
# Experimental: as §3, §4, §1
# [3] = biological target: T4, trypsin inhibitor from Glycine max soybean (Glycine max (soybean)); assay: SPR, 1 µM binder over immobilized trypsin inhibitor
# T4 construct: unrelated negatively charged protein, amine-coupled to the chip
# Experimental: (§5) The experiment was performed on a Biacore® T200 SPR system (GE Healthcare Life Sciences). The dilution, surface preparation, and binding experiments were performed at 25° C. in 1×HBS-EP buffer prepared from 10×HBS-EP. The flow rate for both the immobilization protocol and binding experiment was at 5 μL/min.
# (§6) To prepare the surface for the non-specific binding experiment, chicken egg white lysozyme and trypsin inhibitor from Glycine max soybean were coupled manually to a Biacore® series S CM5 sensor chip (GE Healthcare sciences) with the surface density of 3000-5000 RU using the amine coupling kit according to the manufacture instructions. Samples were prepared at 1 μM in 1×HBS-EP buffer. The samples were injected over activated surfaces with a 10 min association and 15 min dissociation. The data was collected using Biacore® T200 Control Software version 2.0.1 and analyzed using Biacore® T200 Evaluation Software version 3.0 (GE Healthcare Life Sciences).
# [4] = biological target: T5, chicken egg white lysozyme (chicken, UniProt P00698 19-147); assay: SPR, 1 µM binder over immobilized lysozyme
# T5 construct: unrelated positively charged protein, amine-coupled to the chip; also called Lysozyme (positive)
# Experimental: as §5, §6
# T4 sequence (P01070 25-205): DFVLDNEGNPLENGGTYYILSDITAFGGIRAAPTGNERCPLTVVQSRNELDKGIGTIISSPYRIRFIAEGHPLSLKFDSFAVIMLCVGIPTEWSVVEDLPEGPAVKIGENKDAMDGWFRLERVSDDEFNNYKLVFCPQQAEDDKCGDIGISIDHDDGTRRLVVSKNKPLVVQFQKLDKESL
# T5 sequence (P00698 19-147): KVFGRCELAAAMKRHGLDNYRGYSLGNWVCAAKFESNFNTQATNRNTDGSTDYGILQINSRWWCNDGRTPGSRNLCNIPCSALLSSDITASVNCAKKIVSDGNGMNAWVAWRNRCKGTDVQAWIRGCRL
# T2 sequence (chain, as listed by the source limits assumed): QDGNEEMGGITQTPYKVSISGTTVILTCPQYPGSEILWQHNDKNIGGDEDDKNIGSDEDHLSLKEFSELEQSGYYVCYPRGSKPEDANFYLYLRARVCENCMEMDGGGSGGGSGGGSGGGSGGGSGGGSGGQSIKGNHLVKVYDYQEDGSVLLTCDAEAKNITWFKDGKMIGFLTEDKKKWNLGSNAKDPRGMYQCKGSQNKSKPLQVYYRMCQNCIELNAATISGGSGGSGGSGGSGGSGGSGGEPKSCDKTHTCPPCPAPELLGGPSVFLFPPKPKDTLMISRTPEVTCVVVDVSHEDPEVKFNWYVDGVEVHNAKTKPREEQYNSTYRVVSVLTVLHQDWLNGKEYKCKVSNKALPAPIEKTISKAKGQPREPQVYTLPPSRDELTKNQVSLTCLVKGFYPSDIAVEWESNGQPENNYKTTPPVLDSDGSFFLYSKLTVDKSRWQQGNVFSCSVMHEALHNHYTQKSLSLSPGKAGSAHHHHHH
# T3 sequence (Q9NZQ7 other isoform, or with tags, fused parts or gaps limits assumed): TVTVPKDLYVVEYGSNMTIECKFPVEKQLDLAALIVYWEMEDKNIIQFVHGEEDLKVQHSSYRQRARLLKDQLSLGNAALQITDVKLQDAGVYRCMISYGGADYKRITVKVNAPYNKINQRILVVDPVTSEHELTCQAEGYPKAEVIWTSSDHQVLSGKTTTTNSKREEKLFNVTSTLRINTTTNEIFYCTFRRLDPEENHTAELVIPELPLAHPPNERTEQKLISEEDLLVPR
Kd (Human CD3 E+G HuFc-6xHis),Kd (Cyno B7H6-His [1]),binding result (Human B7H1),cy/hu B7-H6 (Cyno B7H6-His [2]),Non-specific binding (RU) [3],Non-specific binding (RU) [4],Binder
13.5 nM,8.4 nM,no binding (tested: 1 µM),1,88.4 RU,15.3 RU,"B7H6#17/CD3#1 (bispecific antibody, human IgG1, kappa, lambda, L234A L235A, scFab-Fc heterodimer, one B7H6 chain and one CD3 chain) chain 1: DIQMTQSPSSLSASVGDRVTITCKASQNVGKYVAWYQQKPGKAPKSLIYSASNRYDGVPSRFSGSGSGTDFTLTISSLQPEDFTTYYCQQYISYPLTFGAGTKLEIKRTVAAPSVFIFPPSDEQLKSGTASVVCLLNNFYPREAKVQWKVDNALQSGNSQESVTEQDSKDSTYSLSSTLTLSKADYEKHKVYACEVTHQGLSSPVTKSFNRGECGGGGSEGKSSGSGSESKSTEGKSSGSGSESKSTGGGGSQVQLVQSGAEVKKPGASVKVSCKASGYTFTSYWMNWMRQAPGQGLEWMGGIYLSGDSTDYNEKFKGRVTMTVDTSTSTVYMELSSLRSEDTAVYYCTRRGDYFGDFWGQGTLVTVSSASTKGPSVFPLAPSSKSTSGGTAALGCLVKDYFPEPVTVSWNSGALTSGVHTFPAVLQSSGLYSLSSVVTVPSSSLGTQTYICNVNHKPSNTKVDKRVEPKSCDKTHTCPPCPAPEAAGGPSVFLFPPKPKDTLMISRTPEVTCVVVDVSHEDPEVKFNWYVDGVEVHNAKTKPREEQYNSTYRVVSVLTVLHQDWLNGKEYKCKVSNKALPAPIEKTISKAKGQPREPQVYTLPPSREEMTKNQVSLWCLVKGFYPSDIAVEWESNGQPENNYKTTPPVLDSDGSFFLYSKLTVDKSRWQQGNVFSCSVMHEALHNHYTQKSLSLSPG chain 2: EAVVTQEPSLTVSPGGTVTLTCRSSTGAVTTSNYANWVQEKPGQLPRGLIGGTNKRAPWVPARFSGSLLGGKAALTLSGAQPEDEAEYFCALWYSNLWVFGGGTKLTVLGQPKAAPSVTLFPPSSEELQANKATLVCLISDFYPGAVKVAWKADGSPVNTGVETTTPSKQSNNKYAASSYLSLTPEQWKSHRSYSCQVTHEGSTVEKTVAPAECSGGGGSEGKSSGSGSESKSTEGKSSGSGSESKSTGGGGSEVQLVESGGGLVQPGGSLKLSCAASGFTFNTYAMNWVRQAPGKGLEWVARIRSKYNNYATYYADSVKDRFTISRDDSKNTAYLQMNNLKTEDTAVYYCVRHGNFGNSYVSWFAYWGQGTLVTVSAASTKGPSVFPLAPSSKSTSGGTAALGCLVKDYFPEPVTVSWNSGALTSGVHTFPAVLQSSGLYSLSSVVTVPSSSLGTQTYICNVNHKPSNTKVDKRVEPKSCDKTHTCPPCPAPEAAGGPSVFLFPPKPKDTLMISRTPEVTCVVVDVSHEDPEVKFNWYVDGVEVHNAKTKPREEQYNSTYRVVSVLTVLHQDWLNGKEYKCKVSNKALPAPIEKTISKAKGQPREPQVYTLPPSREEMTKNQVSLSCAVKGFYPSDIAVEWESNGQPENNYKTTPPVLDSDGSFFLVSKLTVDKSRWQQGNVFSCSVMHEALHNRFTQKSLSLSPG"
3.6 nM,2.3 nM,no binding (tested: 1 µM),2.1,35.4 RU,9.2 RU,"B7H6#12/CD3#1 (bispecific antibody, human IgG1, kappa, lambda, L234A L235A, scFab-Fc heterodimer, one B7H6 chain and one CD3 chain) chain 1: DIQMTQSPSSLSASVGDRVTITCKASQNVGKYVAWYQQKPGKAPKSLIYSASNRYDGVPSRFSGSGSGTDFTLTISSLQPEDFTTYYCQQYISYPLTFGAGTKLEIKRTVAAPSVFIFPPSDEQLKSGTASVVCLLNNFYPREAKVQWKVDNALQSGNSQESVTEQDSKDSTYSLSSTLTLSKADYEKHKVYACEVTHQGLSSPVTKSFNRGECGGGGSEGKSSGSGSESKSTEGKSSGSGSESKSTGGGGSQVQLVQSGAEVKKPGASVKVSCKASGYTFTNYWMNWVKQAPGQGLEWMGGIYLNGDSTDYNEKFKGKATMTVDTSTSTVYMELSSLRSEDTAVYYCTRRGDYFGDFWGQGTLVTVSSASTKGPSVFPLAPSSKSTSGGTAALGCLVKDYFPEPVTVSWNSGALTSGVHTFPAVLQSSGLYSLSSVVTVPSSSLGTQTYICNVNHKPSNTKVDKRVEPKSCDKTHTCPPCPAPEAAGGPSVFLFPPKPKDTLMISRTPEVTCVVVDVSHEDPEVKFNWYVDGVEVHNAKTKPREEQYNSTYRVVSVLTVLHQDWLNGKEYKCKVSNKALPAPIEKTISKAKGQPREPQVYTLPPSREEMTKNQVSLWCLVKGFYPSDIAVEWESNGQPENNYKTTPPVLDSDGSFFLYSKLTVDKSRWQQGNVFSCSVMHEALHNHYTQKSLSLSPG chain 2: EAVVTQEPSLTVSPGGTVTLTCRSSTGAVTTSNYANWVQEKPGQLPRGLIGGTNKRAPWVPARFSGSLLGGKAALTLSGAQPEDEAEYFCALWYSNLWVFGGGTKLTVLGQPKAAPSVTLFPPSSEELQANKATLVCLISDFYPGAVKVAWKADGSPVNTGVETTTPSKQSNNKYAASSYLSLTPEQWKSHRSYSCQVTHEGSTVEKTVAPAECSGGGGSEGKSSGSGSESKSTEGKSSGSGSESKSTGGGGSEVQLVESGGGLVQPGGSLKLSCAASGFTFNTYAMNWVRQAPGKGLEWVARIRSKYNNYATYYADSVKDRFTISRDDSKNTAYLQMNNLKTEDTAVYYCVRHGNFGNSYVSWFAYWGQGTLVTVSAASTKGPSVFPLAPSSKSTSGGTAALGCLVKDYFPEPVTVSWNSGALTSGVHTFPAVLQSSGLYSLSSVVTVPSSSLGTQTYICNVNHKPSNTKVDKRVEPKSCDKTHTCPPCPAPEAAGGPSVFLFPPKPKDTLMISRTPEVTCVVVDVSHEDPEVKFNWYVDGVEVHNAKTKPREEQYNSTYRVVSVLTVLHQDWLNGKEYKCKVSNKALPAPIEKTISKAKGQPREPQVYTLPPSREEMTKNQVSLSCAVKGFYPSDIAVEWESNGQPENNYKTTPPVLDSDGSFFLVSKLTVDKSRWQQGNVFSCSVMHEALHNRFTQKSLSLSPG"
